Assays:
[1] = target: recombinant human VLA-3 protein (ITGA3/ITGB1 heterodimer) (human, UniProt P05556 21-728); assay: ELISA, coated VLA-3 (0.125-1.5 nM), antibody 1 µg/mL
[2] = target: VLA-3 (ITGA3/ITGB1) on the cell membrane; assay: cell-based or functional assay
[3] = target: recombinant human VLA-3 protein (ITGA3/ITGB1 heterodimer) (human) (UniProt P05556); assay: BLI (Octet Red), antibody on AHC sensor, 50 nM VLA-3 with 2 mM Mg2+
[4] = target: recombinant human VLA-3 protein (ITGA3/ITGB1 heterodimer) (human) (UniProt P05556); assay: SPR (Biacore T200), PS4-002 immobilised on CM5, VLA-3 as analyte, HBS-EP running buffer with 3 mM EDTA
[5] = target: recombinant human VLA-3 protein (ITGA3/ITGB1 heterodimer) (human) (UniProt P05556); assay: BLI (Octet Red), antibody on AHC sensor, 50 nM VLA-3 with 2 mM EDTA
[6] = target: recombinant human VLA-3 protein (ITGA3/ITGB1 heterodimer) (human) (UniProt P05556); assay: BLI (Octet Red), antibody on AHC sensor, 50 nM VLA-3 with 2 mM Mn2+
[7] = target: recombinant human VLA-3 protein (ITGA3/ITGB1 heterodimer) (human) (UniProt P05556); assay: BLI (Octet Red), antibody on AHC sensor, VLA-3 as analyte, no additive, 0 mM EDTA in the running buffer
[8] = target: recombinant human VLA-3 protein (ITGA3/ITGB1 heterodimer) (human) (UniProt P05556); assay: BLI (Octet Red), antibody on AHC sensor, 50 nM VLA-3 with 2 mM Ca2+
[9] = target: recombinant human VLA-3 protein (ITGA3/ITGB1 heterodimer) (human) (UniProt P05556); assay: ELISA, coated VLA-3 (0.125-1.5 nM), antibody 1 µg/mL

recombinant human VLA-3 protein (ITGA3/ITGB1 heterodimer) (human), sequence (P05556 21-728, one chain of several): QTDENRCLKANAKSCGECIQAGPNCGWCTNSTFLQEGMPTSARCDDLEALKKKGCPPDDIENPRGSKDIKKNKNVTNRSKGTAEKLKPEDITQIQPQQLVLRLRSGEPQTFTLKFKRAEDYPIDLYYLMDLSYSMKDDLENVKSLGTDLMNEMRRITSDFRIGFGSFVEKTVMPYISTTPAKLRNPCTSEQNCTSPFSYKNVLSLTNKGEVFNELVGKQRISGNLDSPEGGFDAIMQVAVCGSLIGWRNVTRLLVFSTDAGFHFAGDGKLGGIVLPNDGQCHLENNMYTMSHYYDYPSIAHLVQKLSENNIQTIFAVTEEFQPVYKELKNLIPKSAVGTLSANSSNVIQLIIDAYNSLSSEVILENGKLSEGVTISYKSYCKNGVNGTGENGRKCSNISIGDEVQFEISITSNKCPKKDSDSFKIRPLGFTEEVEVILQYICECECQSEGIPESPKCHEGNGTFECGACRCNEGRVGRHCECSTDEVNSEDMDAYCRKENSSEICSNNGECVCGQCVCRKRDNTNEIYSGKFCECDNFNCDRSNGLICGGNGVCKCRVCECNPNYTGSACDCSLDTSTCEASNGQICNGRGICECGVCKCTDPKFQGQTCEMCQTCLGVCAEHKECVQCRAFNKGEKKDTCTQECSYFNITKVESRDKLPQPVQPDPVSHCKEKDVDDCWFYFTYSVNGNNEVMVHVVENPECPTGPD
recombinant human VLA-3 protein (ITGA3/ITGB1 heterodimer), sequence (P05556 21-728, one chain of several): as above

B1: PS4 maxibody variant 2 (Linker-C variant) (Fc fusion)
scFv: QVQLVQSGGGLVNPGGSLRLSCAASGFPFSDHYMSWIRQAPGKGLEWVSYISNRGYTIHYADFVKGRFTISRDNAENTLYLQMNSLRAEDTAVYYCARDRGTIDAFDLWGQGTMVTVSSGGGGGSGGGSCGGGGSQSALTQPASVSGSPGQSITIPCSGTSDDIGRYNYVSWYQQHPGKAPKLLIYDVTRRSSGVSSHFSGSKSGSTASLIISGLQADDEADYFCSSFTNNRTVVFGGGTKLTVLG
notes: also called Mutant 2; L-C; not shown: Fc domain of human IgG1
Q: With B1 as the binder, how does the EC50 [1] read?
A: The EC50 was about 1 nM.

B2: PS4-002-vcMMAE (PS4 maxibody-vcMMAE conjugate, WT) (Fc fusion, part only; not given: scFv linker, hinge-Fc and drug, not shown: another chain or arm of the molecule; a dimerising Fc or GST; small tags and cut ends)
VH: QVQLVQSGGGLVNPGGSLRLSCAASGFPFSDHYMSWIRQAPGKGLEWVSYISNRGYTIHYADFVKGRFTISRDNAENTLYLQMNSLRAEDTAVYYCARDRGTIDAFDLWGQGTMVTVSS
VL: QSALTQPASVSGSPGQSITIPCSGTSDDIGRYNYVSWYQQHPGKAPKLLIYDVTRRSSGVSSHFSGSKSGSTASLIISGLQADDEADYFCSSFTNNRTVVFGGGTKLTVL
modifications: vcMMAE conjugated to cysteines after partial reduction with TCEP; average DAR 4.09; sites not stated, presumabl [CUT]
Q: With B2 as the binder, how does the IC50 (nM), cell growth inhibition (AlamarBlue), A549 cells [2] read?
A: Its IC50 (nM), cell growth inhibition (AlamarBlue), A549 cells is 5.22 nM.

Q: What about the IC50 (nM), cell growth inhibition (AlamarBlue), BT20 cells [2] of the same binder?
A: The IC50 (nM), cell growth inhibition (AlamarBlue), BT20 cells was 134 nM.

Q: What about the IC50 (nM), cell growth inhibition (AlamarBlue), CoCaB1 cells [2] of the same binder?
A: Its IC50 (nM), cell growth inhibition (AlamarBlue), CoCaB1 cells is 2.21 nM.

Q: And the IC50 (nM), cell growth inhibition (AlamarBlue), MDA-MB-231 cells [2]?
A: Its IC50 (nM), cell growth inhibition (AlamarBlue), MDA-MB-231 cells is 0.77 nM.

Q: What about the IC50 (nM), cell growth inhibition (AlamarBlue), MDA-MB-453 cells (first row) [2] of the same binder?
A: Its IC50 (nM), cell growth inhibition (AlamarBlue), MDA-MB-453 cells (first row) is 9.79 nM.

Q: What about the IC50 (nM), cell growth inhibition (AlamarBlue), MDA-MB-453 cells (second row) [2] of the same binder?
A: The IC50 (nM), cell growth inhibition (AlamarBlue), MDA-MB-453 cells (second row) was 18.8 nM.

Q: And the IC50 (nM), cell growth inhibition (AlamarBlue), MKN45 cells [2]?
A: The IC50 (nM), cell growth inhibition (AlamarBlue), MKN45 cells was 14.1 nM.

Q: And the IC50 (nM), cell growth inhibition (AlamarBlue), Panc-1 cells [2]?
A: The IC50 (nM), cell growth inhibition (AlamarBlue), Panc-1 cells was 2.7 nM.

Q: What about the IC50 (nM), cell growth inhibition (AlamarBlue), SCaBER cells [2] of the same binder?
A: The IC50 (nM), cell growth inhibition (AlamarBlue), SCaBER cells was 1.88 nM.

Q: And the IC50 (nM), cell growth inhibition (AlamarBlue), SW780 cells [2]?
A: The IC50 (nM), cell growth inhibition (AlamarBlue), SW780 cells was 1.78 nM.

Q: What about the IC50 (nM), cell growth inhibition (AlamarBlue), UMUC-3 cells [2] of the same binder?
A: The IC50 (nM), cell growth inhibition (AlamarBlue), UMUC-3 cells was 2.1 nM.

Q: And the Maximum (% inhibition), cell growth inhibition (AlamarBlue), A549 cells [2]?
A: Its Maximum (% inhibition), cell growth inhibition (AlamarBlue), A549 cells is 77.3%.

Q: And the Maximum (% inhibition), cell growth inhibition (AlamarBlue), Aspc-1 cells [2]?
A: Its Maximum (% inhibition), cell growth inhibition (AlamarBlue), Aspc-1 cells is 51.8%.

Q: What about the Maximum (% inhibition), cell growth inhibition (AlamarBlue), BT20 cells [2] of the same binder?
A: Its Maximum (% inhibition), cell growth inhibition (AlamarBlue), BT20 cells is 79.6%.

Q: What about the Maximum (% inhibition), cell growth inhibition (AlamarBlue), CoCaB1 cells [2] of the same binder?
A: Its Maximum (% inhibition), cell growth inhibition (AlamarBlue), CoCaB1 cells is 95.5%.

Q: And the Maximum (% inhibition), cell growth inhibition (AlamarBlue), MDA-MB-231 cells [2]?
A: Its Maximum (% inhibition), cell growth inhibition (AlamarBlue), MDA-MB-231 cells is 78%.

Q: And the Maximum (% inhibition), cell growth inhibition (AlamarBlue), MDA-MB-453 cells (first row) [2]?
A: The Maximum (% inhibition), cell growth inhibition (AlamarBlue), MDA-MB-453 cells (first row) was 96.2%.

Q: And the Maximum (% inhibition), cell growth inhibition (AlamarBlue), MDA-MB-453 cells (second row) [2]?
A: The Maximum (% inhibition), cell growth inhibition (AlamarBlue), MDA-MB-453 cells (second row) was 87.9%.

Q: And the Maximum (% inhibition), cell growth inhibition (AlamarBlue), MDA-MB-468 cells [2]?
A: The Maximum (% inhibition), cell growth inhibition (AlamarBlue), MDA-MB-468 cells was 89.9%.

Q: What about the Maximum (% inhibition), cell growth inhibition (AlamarBlue), MKN45 cells [2] of the same binder?
A: Its Maximum (% inhibition), cell growth inhibition (AlamarBlue), MKN45 cells is 55.6%.

Q: What about the Maximum (% inhibition), cell growth inhibition (AlamarBlue), Panc-1 cells [2] of the same binder?
A: The Maximum (% inhibition), cell growth inhibition (AlamarBlue), Panc-1 cells was 73.8%.

Q: What about the Maximum (% inhibition), cell growth inhibition (AlamarBlue), SCaBER cells [2] of the same binder?
A: Its Maximum (% inhibition), cell growth inhibition (AlamarBlue), SCaBER cells is 89.7%.

Q: What about the Maximum (% inhibition), cell growth inhibition (AlamarBlue), SW780 cells [2] of the same binder?
A: Its Maximum (% inhibition), cell growth inhibition (AlamarBlue), SW780 cells is 90.4%.

Q: What about the Maximum (% inhibition), cell growth inhibition (AlamarBlue), UMUC-3 cells [2] of the same binder?
A: Its Maximum (% inhibition), cell growth inhibition (AlamarBlue), UMUC-3 cells is 90.8%.

B3: PS4-002 maxibody (scFv-human IgG1 Fc), wild type (Fc fusion, part only; not given: scFv linker and IgG1 hinge-Fc, not shown: another chain or arm of the molecule; a dimerising Fc or GST; small tags and cut ends)
VH: B2 VH
VL: B2 VL
Q: For B3, which Kd [3] is on record?
A: Its Kd is 0.85 nM.

Q: And the koff [3]?
A: The koff was 3.78e-05 s⁻¹.

Q: And the kon [3]?
A: Its kon is 44600 M⁻¹ s⁻¹.

Q: And the Kd [4]?
A: The Kd was 216 nM.

Q: What about the koff [4] of the same binder?
A: Its koff is 0.0045 s⁻¹.

Q: And the kon [4]?
A: The kon was 20900 M⁻¹ s⁻¹.

Q: What about the Kd [5] of the same binder?
A: Its Kd is 2170 nM.

Q: And the koff [5]?
A: The koff was 0.00397 s⁻¹.

Q: And the kon [5]?
A: Its kon is 1830 M⁻¹ s⁻¹.

Q: And the Kd [6]?
A: The Kd was 0.23 nM.

Q: What about the koff [6] of the same binder?
A: The koff was 8.46e-06 s⁻¹.

Q: And the kon [6]?
A: The kon was 36500 M⁻¹ s⁻¹.

Q: What about the Kd [7] of the same binder?
A: The Kd was 2.15 nM.

Q: And the koff [7]?
A: The koff was 5.9e-05 s⁻¹.

Q: What about the kon [7] of the same binder?
A: Its kon is 32500 M⁻¹ s⁻¹.

Q: And the Kd [8]?
A: The Kd was 6.46 nM.

Q: And the koff [8]?
A: The koff was 0.000209 s⁻¹.

Q: What about the kon [8] of the same binder?
A: Its kon is 32400 M⁻¹ s⁻¹.

Q: And the EC50 [9]?
A: Its EC50 is 1 nM.

— patent EP4703380A1, “INTEGRIN-TARGETING ANTIBODIES AND USE THEREOF” (NIO BIOPHARMACEUTICALS. INC., priority 2023, dated 2024)
